Values of other authors as cited in article PMC7106946.

Target: Asp46 (UniProt position 303, VILFMDRNLEQ)
Assay: NMR

Substance: Hedgehog protein autoprocessing domain (HhC) Hint domain, wild type at position 46 (Drosophila melanogaster)
- pKa: 5.8
